Laboratory results taken from patent US20210403575A1 (SHANGHAI YICHEN BIOMED, published 2021).

Biological target: T1, hEGFR-hIGg1Fc (SinoBiological) (human, UniProt P00533 25-645)
T1 construct: Bought reagent; also called human EGFR; human EGFR antigen; not shown: human IgG1 Fc
Experiment: ELISA, coated hEGFR-hIgG1Fc

Row | binding result | Binder
1 | binds | aPDL1ScFv-L1-aEGFRL (bispecific antibody, also called aPDL1 scfv-aEGFR fusion) heavy: QVQLQESGPGLVKPSETLSLTCTVSGGSVSSGDYYWTWIRQSPGKGLEWIGHIYYSGNTNYNPSLKSRLTISIDTSKTQFSLKLSSVTAADTAIYYCVRDRVTGAFDIWGQGTMVTVSSASTKGPSVFPLAPSSKSTSGGTAALGCLVKDYFPEPVTVSWNSGALTSGVHTFPAVLQSSGLYSLSSVVTVPSSSLGTQTYICNVNHKPSNTKVDKKVEPKSCDKTHTCPPCPAPPVAGPSVFLFPPKPKDTLMISRTPEVTCVVVDVSHEDPEVKFNWYVDGVEVHNAKTKPREEQYNSTYRVVSVLTVLHQDWLNGKEYKCKVSNKGLPSSIEKTISKAKGQPREPQVYTLPPSRDELTKNQVSLTCLVKGFYPSDIAVEWESNGQPENNYKTTPPVLDSDGSFFLYSKLTVDKSRWQQGNVFSCSVMHEALHNHYTQKSLSLSPGK light: not shown
2 | binds | aPDL1ScFv-L2-aEGFRL (bispecific antibody, also called aPDL1 scfv-aEGFR fusion) heavy: QVQLQESGPGLVKPSETLSLTCTVSGGSVSSGDYYWTWIRQSPGKGLEWIGHIYYSGNTNYNPSLKSRLTISIDTSKTQFSLKLSSVTAADTAIYYCVRDRVTGAFDIWGQGTMVTVSSASTKGPSVFPLAPSSKSTSGGTAALGCLVKDYFPEPVTVSWNSGALTSGVHTFPAVLQSSGLYSLSSVVTVPSSSLGTQTYICNVNHKPSNTKVDKKVEPKSCDKTHTCPPCPAPPVAGPSVFLFPPKPKDTLMISRTPEVTCVVVDVSHEDPEVKFNWYVDGVEVHNAKTKPREEQYNSTYRVVSVLTVLHQDWLNGKEYKCKVSNKGLPSSIEKTISKAKGQPREPQVYTLPPSRDELTKNQVSLTCLVKGFYPSDIAVEWESNGQPENNYKTTPPVLDSDGSFFLYSKLTVDKSRWQQGNVFSCSVMHEALHNHYTQKSLSLSPGK light: not shown
